Test results: the supplement of paper PMC10724198
± gives the standard deviation of the averaged measurements.

Experiments:
Saccharomyces cerevisiae [1] = test: protein stability index of tFT-peptide fusion (C-terminal peptide) (PSI (0-1 scale)); higher = more stable (slower turnover); details: genetic background: wild type; temperature: 30 C
Saccharomyces cerevisiae [2] = test: as above
Protocol: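 MPS profiling in S. cerevisiae of the tFT-X12 degron library: putative degron peptides plus stable controls, 12 aa, fused to the C-terminus of a sfGFP-mCherry timer. Cells are FACS-sorted into 8 mCherry/sfGFP bins and deep-sequenced. PSI runs from 0 (unstable) to 1 (stable). Backgrounds are wild type, das1Δ and doa10Δ at 30 °C, and wild type, das1Δ, cdc34-1 and cdc53-1 at 37 °C; 2-3 technical replicates each.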

[3] = genetic background: cdc34-1, temperature: 37 C
[4] = genetic background: cdc53-1, temperature: 37 C
[5] = genetic background: das1 deletion, temperature: 30 C
[6] = genetic background: das1 deletion, temperature: 37 C
[7] = genetic background: doa10 deletion, temperature: 30 C
[8] = genetic background: wild type, temperature: 30 C
[9] = genetic background: wild type, temperature: 37 C
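Also: PSI is a weighted mean of sequencing reads over stability bins, variants kept only with over 10 reads, mCherry proximal and sfGFP distal, peptide attached via GGGS linker.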

FTGLCQGLWLGW showed a protein stability index (Saccharomyces cerevisiae [1]) of 0.738 ± 0.025, a protein stability index (Saccharomyces cerevisiae [2]; [3]) of 0.691 ± 0.019 and a protein stability index (Saccharomyces cerevisiae [2]; [4]) of 0.743 ± 0.014. For the same sequence, the protein stability index (Saccharomyces cerevisiae [2]; [5]) was 0.658 ± 0.059, the protein stability index (Saccharomyces cerevisiae [2]; [6]) was 0.775 ± 0.02 and the protein stability index (Saccharomyces cerevisiae [2]; [7]) was 0.684 ± 0.039. The protein stability index (Saccharomyces cerevisiae [2]; [8]) was 0.649 ± 0.013 and the protein stability index (Saccharomyces cerevisiae [2]; [9]) was 0.7501 ± 0.0044.

For FVCLCGFLQVLS, the protein stability index (Saccharomyces cerevisiae [1]) was 0.489 ± 0.0078, the protein stability index (Saccharomyces cerevisiae [2]; [3]) was 0.517 ± 0.018 and the protein stability index (Saccharomyces cerevisiae [2]; [4]) was 0.564 ± 0.038. The protein stability index (Saccharomyces cerevisiae [2]; [5]) was 0.395 ± 0.036, the protein stability index (Saccharomyces cerevisiae [2]; [6]) was 0.632 ± 0.04 and the protein stability index (Saccharomyces cerevisiae [2]; [7]) was 0.3687 ± 0.0013. It also gave a protein stability index (Saccharomyces cerevisiae [2]; [8]) of 0.411 ± 0.028 and a protein stability index (Saccharomyces cerevisiae [2]; [9]) of 0.526 ± 0.028.

FVLWWGWSWLVV gave a protein stability index (Saccharomyces cerevisiae [1]) of 0.235 ± 0.019, a protein stability index (Saccharomyces cerevisiae [2]; [3]) of 0.213 ± 0.01 and a protein stability index (Saccharomyces cerevisiae [2]; [4]) of 0.30626 ± 6.5e-05. The protein stability index (Saccharomyces cerevisiae [2]; [5]) was 0.173 ± 0.027, the protein stability index (Saccharomyces cerevisiae [2]; [6]) was 0.318 ± 0.0055 and the protein stability index (Saccharomyces cerevisiae [2]; [7]) was 0.152 ± 0.0023. For the same sequence, the protein stability index (Saccharomyces cerevisiae [2]; [8]) was 0.16 ± 0.016 and the protein stability index (Saccharomyces cerevisiae [2]; [9]) was 0.2824 ± 0.00063.

For FVRVFLRLGVVS, the protein stability index (Saccharomyces cerevisiae [1]) was 0.299 ± 0.027, the protein stability index (Saccharomyces cerevisiae [2]; [3]) was 0.14 ± 0.024 and the protein stability index (Saccharomyces cerevisiae [2]; [4]) was 0.17 ± 0.039. For the same sequence, the protein stability index (Saccharomyces cerevisiae [2]; [5]) was 0.194 ± 0.035, the protein stability index (Saccharomyces cerevisiae [2]; [6]) was 0.302 ± 0.019 and the protein stability index (Saccharomyces cerevisiae [2]; [7]) was 0.175 ± 0.0045. It also gave a protein stability index (Saccharomyces cerevisiae [2]; [8]) of 0.177 ± 0.022 and a protein stability index (Saccharomyces cerevisiae [2]; [9]) of 0.256 ± 0.0033.

FVSVWVFLVSSF showed a protein stability index (Saccharomyces cerevisiae [1]) of 0.312 ± 0.024, a protein stability index (Saccharomyces cerevisiae [2]; [3]) of 0.258 ± 0.025 and a protein stability index (Saccharomyces cerevisiae [2]; [4]) of 0.381 ± 0.019. It also gave a protein stability index (Saccharomyces cerevisiae [2]; [5]) of 0.248 ± 0.032, a protein stability index (Saccharomyces cerevisiae [2]; [6]) of 0.457 ± 0.014 and a protein stability index (Saccharomyces cerevisiae [2]; [7]) of 0.194 ± 0.017. The protein stability index (Saccharomyces cerevisiae [2]; [8]) was 0.225 ± 0.035 and the protein stability index (Saccharomyces cerevisiae [2]; [9]) was 0.401 ± 0.039.

FVVQSLNQMRLN was tested, and the protein stability index (Saccharomyces cerevisiae [1]) was 0.441 ± 0.034, the protein stability index (Saccharomyces cerevisiae [2]; [3]) was 0.693 ± 0.025 and the protein stability index (Saccharomyces cerevisiae [2]; [4]) was 0.727 ± 0.02. It also gave a protein stability index (Saccharomyces cerevisiae [2]; [5]) of 0.656 ± 0.035, a protein stability index (Saccharomyces cerevisiae [2]; [6]) of 0.718 ± 0.019 and a protein stability index (Saccharomyces cerevisiae [2]; [7]) of 0.354 ± 0.0096. The protein stability index (Saccharomyces cerevisiae [2]; [8]) was 0.379 ± 0.025 and the protein stability index (Saccharomyces cerevisiae [2]; [9]) was 0.62 ± 0.025.

FVYFLLVVCFAF was tested, and the protein stability index (Saccharomyces cerevisiae [1]) was 0.208 ± 0.011, the protein stability index (Saccharomyces cerevisiae [2]; [3]) was 0.1671 ± 0.0012 and the protein stability index (Saccharomyces cerevisiae [2]; [4]) was 0.242 ± 0.014. It also gave a protein stability index (Saccharomyces cerevisiae [2]; [5]) of 0.184 ± 0.028, a protein stability index (Saccharomyces cerevisiae [2]; [6]) of 0.274 ± 0.0017 and a protein stability index (Saccharomyces cerevisiae [2]; [7]) of 0.157 ± 0.0085. The protein stability index (Saccharomyces cerevisiae [2]; [8]) was 0.166 ± 0.021 and the protein stability index (Saccharomyces cerevisiae [2]; [9]) was 0.249 ± 0.017.

For FWESHVLPYRLL, the protein stability index (Saccharomyces cerevisiae [1]) was 0.239 ± 0.045, the protein stability index (Saccharomyces cerevisiae [2]; [3]) was 0.654 ± 0.036 and the protein stability index (Saccharomyces cerevisiae [2]; [4]) was 0.78233 ± 0.00013. For the same sequence, the protein stability index (Saccharomyces cerevisiae [2]; [5]) was 0.644 ± 0.014, the protein stability index (Saccharomyces cerevisiae [2]; [6]) was 0.7799 ± 0.0022 and the protein stability index (Saccharomyces cerevisiae [2]; [7]) was 0.19 ± 0.008. It also gave a protein stability index (Saccharomyces cerevisiae [2]; [8]) of 0.223 ± 0.018 and a protein stability index (Saccharomyces cerevisiae [2]; [9]) of 0.465 ± 0.028.

FWFLWAKMLLSC showed a protein stability index (Saccharomyces cerevisiae [1]) of 0.175 ± 0.022, a protein stability index (Saccharomyces cerevisiae [2]; [3]) of 0.253 ± 0.015 and a protein stability index (Saccharomyces cerevisiae [2]; [4]) of 0.212 ± 0.064. It also gave a protein stability index (Saccharomyces cerevisiae [2]; [5]) of 0.252 ± 0.032, a protein stability index (Saccharomyces cerevisiae [2]; [6]) of 0.377 ± 0.0081 and a protein stability index (Saccharomyces cerevisiae [2]; [7]) of 0.0958 ± 0.02. The protein stability index (Saccharomyces cerevisiae [2]; [8]) was 0.109 ± 0.027 and the protein stability index (Saccharomyces cerevisiae [2]; [9]) was 0.138 ± 0.023.
